US20180339041A1 (Kyowa Kirin, published 2018)
Each block holds one binder with its values, some of them ahead of it.

Assays:
[1] = molecular target: T1, C-terminally FLAG-tagged mouse Gas6 recombinant protein (mGas6-F) (mouse, UniProt Q61592 28-674, limits assumed, gamma-carboxylated glutamic acid residues in the Gla domain (producer cells co-express rat VKOR and human GGCX); positions not given); test: ELISA: mGas6-F (1 µg/mL) captured on coated anti-FLAG M2 antibody; biotinylated test antibody; streptavidin-HRP/TMB; absorbance 450-570 nm, N=2 (Example 6) [D]
T1 construct: also called mouse Gas6-F
T1 sequence (looked up): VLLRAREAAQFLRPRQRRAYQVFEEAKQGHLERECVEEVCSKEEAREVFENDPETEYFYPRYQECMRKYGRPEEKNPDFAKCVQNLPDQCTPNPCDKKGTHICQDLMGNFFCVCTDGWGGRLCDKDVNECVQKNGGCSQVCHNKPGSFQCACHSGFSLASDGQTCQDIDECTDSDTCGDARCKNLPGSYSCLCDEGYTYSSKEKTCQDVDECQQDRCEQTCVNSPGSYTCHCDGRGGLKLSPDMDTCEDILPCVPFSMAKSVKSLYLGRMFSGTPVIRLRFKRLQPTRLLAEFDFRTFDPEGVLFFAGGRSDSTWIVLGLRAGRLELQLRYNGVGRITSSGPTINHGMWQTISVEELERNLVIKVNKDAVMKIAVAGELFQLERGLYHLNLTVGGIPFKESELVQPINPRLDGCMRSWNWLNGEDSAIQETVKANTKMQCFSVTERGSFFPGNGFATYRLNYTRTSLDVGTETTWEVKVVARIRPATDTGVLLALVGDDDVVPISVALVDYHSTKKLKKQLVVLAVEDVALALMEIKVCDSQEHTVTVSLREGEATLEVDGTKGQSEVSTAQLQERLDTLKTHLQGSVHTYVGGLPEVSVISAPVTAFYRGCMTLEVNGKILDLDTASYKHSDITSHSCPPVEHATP
Procedure: (§1) First, 2 μg/mL anti-FLAG antibody [Monoclonal ANTI-FLAG M2 antibody produced in mouse (manufactured by Sigma-Aldrich Co. LLC) diluted with PBS (manufactured by Nacalai Tesque, Inc.)] was dispensed at 50 μL/well to a 96-well plate for ELISA (manufactured by Nalge Nunc International), and the plate was left standing overnight at 4° C. for adsorption. After removal of the immobilization solution, 1% BSA-PBS (manufactured by Nacalai Tesque, Inc.) was added thereto at 300 μL/well, and the plate was left standing at room temperature for 1 hour for blocking and washed five times with Tween 20-PBS (manufactured by Wako Pure Chemical Industries Ltd.).
(§2) Each antibody solution was dispensed thereto at 50 μL/well, and the plate was left standing at room temperature for 1 hour. This plate was washed five times with Tween 20-PBS. Then, Streptavidin HRP Conjugate (manufactured by R&D Systems, Inc.) diluted 200-fold with 1% BSA-PBS was dispensed thereto at 50 μL/well, and the plate was left standing at room temperature for 1 hour. This plate was washed five times with Tween 20-PBS, and TMB (manufactured by Sigma-Aldrich Co. LLC) was added thereto at 50 μL/well and reacted. […] The absorbance at a sample wavelength of 450 nm and a reference wavelength of 570 nm (450 nm-570 nm) was measured using a plate reader.

[2] = molecular target: T2, C-terminally FLAG-tagged human Gas6 recombinant protein (hGas6-F) (human, UniProt Q14393 31-678, gamma-carboxylated glutamic acid residues in the Gla domain (producer cells co-express rat VKOR and human GGCX); positions not given); test: ELISA: hGas6-F (1 µg/mL) captured on coated anti-FLAG M2 antibody; biotinylated test antibody; streptavidin-HRP/TMB; absorbance 450-570 nm, N=2 (Example 6) [A]
T2 construct: also called human Gas6-F; human Gas6 protein
T2 sequence: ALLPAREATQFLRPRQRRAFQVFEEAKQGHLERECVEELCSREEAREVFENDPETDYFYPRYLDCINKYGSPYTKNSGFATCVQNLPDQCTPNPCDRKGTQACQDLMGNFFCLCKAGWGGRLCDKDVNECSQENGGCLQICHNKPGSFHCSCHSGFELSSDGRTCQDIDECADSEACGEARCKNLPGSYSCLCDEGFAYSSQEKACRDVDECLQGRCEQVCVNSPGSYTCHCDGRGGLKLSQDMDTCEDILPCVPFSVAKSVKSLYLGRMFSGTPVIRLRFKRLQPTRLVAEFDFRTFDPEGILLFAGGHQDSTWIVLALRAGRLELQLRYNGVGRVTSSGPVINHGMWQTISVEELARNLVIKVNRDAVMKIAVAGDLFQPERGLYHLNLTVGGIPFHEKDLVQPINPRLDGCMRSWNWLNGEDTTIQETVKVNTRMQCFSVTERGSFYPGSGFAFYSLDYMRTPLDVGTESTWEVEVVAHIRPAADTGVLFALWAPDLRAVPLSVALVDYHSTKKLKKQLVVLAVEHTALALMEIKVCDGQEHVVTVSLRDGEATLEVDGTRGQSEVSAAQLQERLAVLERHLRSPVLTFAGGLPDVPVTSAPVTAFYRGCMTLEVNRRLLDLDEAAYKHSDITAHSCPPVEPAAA
Procedure: as §1, §2

EC50 (read off the curve) [1]: ~3 ng/mL
EC50 (read off the curve) [2]: ~3 ng/mL
B1: anti-human Gas6 mouse monoclonal antibody KM5320 (KM5320-mKG1 antibody) (antibody, V domains shown)
VH: QIQLVQSGPELKKPGETVKISCKASGYTFTNYGMNWVKQAPGKGLKWMGWINTETGEPTYSDDFKGRFAFSLETSATTAYLQINNLRNEDMATYFCAREDGYYGTLDYWGQGTSVTVSS
VL: SIVMTQTPKFLLVSAGDRVTITCKASQSVSNDVAWYQQKPGQSPKVLIYYASNRYTGVPDRFTGSGYGTDFTFTISTVQAEDLAVYFCQQDYSSPWTFGGGTKLEIK
notes: Hybridoma-derived mouse IgG1, kappa; also called KM5320 antibody

EC50 (read off the curve) [1]: ~4 ng/mL
EC50 (read off the curve) [2]: ~4 ng/mL
B2: anti-human Gas6 mouse monoclonal antibody KM5321 (KM5321-mKG1 antibody) (antibody, V domains shown)
VH: QIQLVQSGPELKKPGETVKISCRASGYTFTNYGMNWVKQAPGKGLKWMGWINTNTGEPTYTEEFKGRFAFSLETSATTAYLQINDLKNEDTATYFCARDEGWFVYWGQGTLITVSA
VL: ETTVTQSPASLSVATGEKVTIRCITSTDIDDDMNWYQQKPGEPPKLLISEGNTLRPGVPSRFSSSGYGTDFVFTIENTLSEDVADYYCLQTDSVPLTFGAGTKLELK
notes: Hybridoma-derived mouse IgG1, kappa; also called KM5321 antibody
